Test results taken from patent US7063946B2, “Methods, reagents, kits and apparatus for protein function analysis” (Meso Scale Technologies, LLC., priority 2001, dated 2006).

What was measured:
[1] = target: T1, pY1068 peptide (SEQ ID NO: 7) (Homo sapiens, UniProt P00533); experiment: 96-well screen for phosphopeptide binding proteins, 7-spot IPR plates; conditions: two steps of normalization; top 9 clones
T1 construct: phosphotyrosine at Tyr1068 (chemical modification); purchased New England Peptide, Fitchburg Mass; host or cells: chemical synthesis
Protocol: A screen was conducted using 7-spot IPR plates. The 7 spot NPT IPR plates are described in more detail in copending Provisional Application No. 60/301,932 (entitled “Assay Plates, Reader Systems and Methods for Luminescence Test Measurements”, filed on Jun. 29, 2001, hereby incorporated by reference) and particularly in the description of Plate Type D in Example 6.1 (NPT IPR plate) and U.S. application Ser. Nos. 10/185,274 and 10/185,363, filed Jun. 28, 2002, each hereby incorporated by reference. These plates consist of a 96 wells with 7 zones (spots) for the immobilization of proteins or other reagents. Each spot was coated with BSA conjugated to either a single phosphopeptide or multiple phosphopeptides.
The plates were prepared essentially as described in example 12. The seven spots supported, respectively, the following BSA conjugates IkB, pY992, pY1068, pY1148, Myc, “A”, and “6-P”. “A” refers to a conjugate of BSA with multiple peptides: IkB, pY1148, Myc which were then coupled to BSA. “6-P” refers to a conjugate of BSA with the following multiple peptides: IkB, pY1148, pY992, pY1068, Smad3C.
For the assay, 4 ul from TnT reaction product described above were added to the coated plate containing 50 μl of binding buffer supplemented with 50 ng/well Ru-Streptavidin. The binding reaction was allowed to proceed at room temperature for 1 hour with constant shaking. […] The ECL signals were measured using an imaging plate reader (IPR). The raw data from the IPR reader was then normalized using two steps of normalization. The first round was based on the 50 lowest values for a given specific spot.

[2] = tested on: pEY; experiment: In vitro kinase library screen: activity towards pEY; type: biochemical; conditions: 5 ul of expressed protein
Procedure, shortened: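 Kinases made by in vitro transcription/translation, immobilised on streptavidin/avidin plates and washed with Tris/Triton and high-salt buffers. Incubated overnight at room temperature with 5 nM pEY, 100 µM ATP, Mg2+/Mn2+ and vanadate at pH 7.4. Phospho-pEY captured with biotinylated PY20 and detected by Sulfo-TAG anti-phosphotyrosine ECL.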

[3] = tested on: autophosphorylation (phosphotyrosine); experiment: In vitro kinase library screen: autophosphorylation; type: biochemical
Procedure, shortened: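 Biotinylated SYK and EphA7 from in vitro transcription/translation, immobilized on streptavidin/avidin plates; autophosphorylation overnight at room temperature with 5 mM MgCl2, 5 mM MnCl2, 100 μM ATP, pH 7.4. Phosphotyrosine detected by Sulfo-TAG anti-phosphotyrosine (45 min) and ECL read-out.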

[4] = tested on: ubiquitin-proteasome system (N-end rule pathway) in reticulocyte lysate; experiment: ECL assay for ubiquitylation in reticulocyte lysate using Sulfo-TAG-labeled Ub, streptavidin-coated IPR plate; type: biochemical, rabbit; conditions: for IPR readings, Experiment 1 / IPR readings, Experiment 2: Sulfo-TAG-labeled Ub, reticulocyte lysate +
Protocol: (§1) Binding Buffer 2 (BB2) refers to 25 mM Tris-HCl buffer pH 7.4 containing 100 mM NaCl, 0.05 mM Na3VO4, 0.004% TritonX-100, 2 mM DTT and protease inhibitors (protease inhibitor cocktail, EDTA free, Roche Applied Science). Proteins were produced by coupled transcription/translation using TnT reaction mixes (Promega Corp, WI). The TNT Quick coupled transcription-translation system (Promega) contains rabbit reticulocyte lysate pre-mixed with most of the reaction components necessary to carry out transcription and translation in vitro (TNT mix), including all the amino acids except methionine. Unless otherwise noted, biotin-labeled in vitro translated proteins were produced in reaction mixtures that contained 8–30 μg/ml of a selected plasmid encoding protein of interest, 5 μl of TNT T7 Quick reticulocyte lysate mix (Promega Corp, WI) or TnT SP6 Quick Coupled Transcription/Translation System (Promega Corp, WI), 20 μM methionine, 50 μM MG-132 (Calbiochem, proteasome inhibitor to inhibit degradation of ubiquitylated proteins by proteasome) and 20 μg/ml biotinylated Lys-tRNA (transcend tRNA, Promega). The reactions were allowed to proceed for 20–90 min at 30° C. The reactions were stopped by the addition of BB1 supplemented with 20 mM AMP-PNP (Sigma, a non-hydrolyzable ATP analog), 20 mM N-ethylmaleimide (Sigma, an irreversible inhibitor of deubiquitylating enzymes) or, alternatively, by the addition of BB2. BB1 was used in screens involving the ubiquitination pathway. BB2 was used for other assay formats. The produced proteins were used in the assays of interest with or without further purification.
RGS4 was produced by transcription/translation of 30 μg/ml plasmid pcDNA3-RGS4 (Davydov and Varshavsky, 2000, J. Biol. Chem., 275:22931–22941) under the conditions described in Materials and Methods except for the addition of 1 μM Ub aldehyde (Calbiochem, to inhibit deubiquitylating enzymes) and 5 μM Sulfo-Tag-labeled Ub (having an average of 4.1 labels per Ub molecule). Then 3 μl of the reaction was mixed with 50 μl of BB1 in a 96-well streptavidin-coated non-plasma treated IPR (NPT IPR) plate.

[5] = tested on: N-end rule pathway ubiquitylation in reticulocyte lysate; experiment: ECL ubiquitylation assay using Sulfo-TAG-labeled streptavidin and IPR plate coated with FK2 antibody; type: biochemical, rabbit; conditions: for IPR readings, Experiment 1 / IPR readings, Experiment 2: no dipeptide inhibitor
Protocol: as §1
Transcription-translation reaction mixtures were prepared as described in the Example 1 except that no labeled ubiquitin was added. Some reactions also contained 1 mM dipeptide inhibitor of the N-end rule pathway (either Arg-β-Ala, or Trp-Ala) together with 50 μM bestatin as indicated (Table 2). The reaction was allowed to proceed for 20 min at 30° C. Then 1 μl of the reaction was mixed with 50 μl of BB1 supplemented with 20 mM AMP-PNP, 20 mM N-ethylmaleimide, and 2 μg/ml Sulfo-TAG-labeled streptavidin in a well of an IPR plate coated with an anti-ubiquitin antibody (FK2 antibody, Affiniti). […] In a typical assay the presence of RGS4-encoding plasmid produced a 30–100 fold higher ECL signal compared to the empty vector (FIG. 2, Table 2). This signal was reduced 3–4 fold in the presence of Arg-β-Ala (a type 1 inhibitor of the N-end rule pathway), but not in the presence of Trp-Ala (a type 2 inhibitor of the N-end rule pathway) in agreement with the previous report that RGS4 is a type 1 N-end rule substrate in reticulocyte lysates (Davydov and Varshavsky, 2000, J. Biol. Chem., 275:22931–22941). In the same assay RGS4 produced 3–5 fold higher ECL signal compared to RGS4C2V, when the same amounts of the corresponding plasmids were added to the reaction mixtures (Table 2).

[6] = tested on: ubiquitylation in reticulocyte lysate; experiment: ECL ubiquitylation assay using Sulfo-TAG-labeled FK2 antibody and streptavidin-coated IPR plate; type: biochemical, rabbit
Protocol: The protein was prepared as described Example 2 and mixed with 60 μg/ml Sulfo-TAG-labeled FK2 antibody (Affiniti) having 5.6 labels per antibody, in a streptavidin-coated NPT IPR plate.

[7] = tested on: ubiquitylation in reticulocyte lysate; experiment: Ubiquitylation assay using Sulfo-TAG labeled Ub, streptavidin magnetic beads, M-8 Analyzer; type: biochemical, rabbit
Protocol: Then 10 μl of the reaction product was mixed with 50 μl of BB1 supplemented with 20 mM AMP-PNP, 20 mM N-ethylmaleimide, and 20 μg streptavidin coated magnetic beads (Streptavidin Dyna-Beads, Dynal) in a 96-well plate. […] Thereafter the volume in each well was adjusted to 200 μl with binding buffer, and ECL signals were measured in M-8 Analyzer (IGEN International, Inc., Gaithersburg, Md.).

[8] = tested on: ubiquitylation in reticulocyte lysate; experiment: Ubiquitylation assay using Sulfo-TAG labeled FK2 antibody, streptavidin magnetic beads, M-8 Analyzer; type: biochemical, rabbit
Protocol: Transcription-translation reaction mixtures containing pcDNA3-RGS4 or pcDNA3-RGS4-C2V plazmids(Davydov and Varshavsky, 2000, J. Biol. Chem., 275:22931–22941) were prepared and used as described in the Example 2. The reaction products were mixed with 3 μg Sulfo-TAG labeled FK2 antibody in a 96-well plate in a binding buffer. Sulfo-TAG labeled FK2 antibody had 5.6 Sulfo-TAG labels per antibody molecule. […] Then 30 μl of BB1 supplemented with 20 mM AMP-PNP, 20 mM N-ethylmaleimide and containing 20 μg dynal beads streptavidin (Dynal) were added to each well, and the plate was left on the shaker at room temperature for another hour to allow for binding of biotinylated proteins to dynal beads. Thereafter the volume in each well was adjusted to 200 μl with BB1, and ECL signals were measured in M-8 Analyzer (IGEN International, Inc., Gaithersburg Md.).

normalized ECL signal, pY1068 spot [1] | HTS signal [2] | ECL signal [3] | Molecule | IPR readings, Experiment 1 [4] | IPR readings, Experiment 2 [4] | fold higher ECL signal compared to RGS4C2V ([4]; same amounts of plasmids) | fold higher ECL signal compared to the empty vector ([4]; typical experiment) | IPR readings, Experiment 1 [5] | IPR readings, Experiment 2 [5] | fold higher ECL signal compared to RGS4C2V ([5]; same amounts of plasmids) | fold higher ECL signal compared to the empty vector ([5]; typical assay) | IPR readings ([6]; reticulocyte lysate +) | fold higher ECL signal compared to the empty vector ([6]; typical assay) | M-8 readings, Experiment 1 [7] | M-8 readings, Experiment 2 [7] | M-8 readings [8]
3 | 523,662 | 443,933 | 3919253: IMAGE clone protein: BMX non-receptor tyrosine kinase (protein) MDTKSILEELLLKRSQQKKKMSPNNYKERLFVLTKTNLSYYEYDKMKRGSRKGSIEIKKIRCVEKVNLEEQTPVERQYPFQIVYKDGLLYVYASNEESRSQWLKALQKEIRGNPHLLVKYHSGFFVDGKFLCCQQSCKAAPGCTLWEAYANLHTAVNEEKHRVPTFPDRVLKIPRAVPVLKMDAPSSSTTLAQYDNESKKNYGSQPPSSSTSLAQYDSNSKKIYGSQPNFNMQYIPREDFPDWWQVRKLKSSSSSEDVASSNQKERNVNHTTSKISWEFPESSSSEEEENLDDYDWFAGNISRSQSEQLLRQKGKEGAFMVRNSSQVGMYTVSLFSKAVNDKKGTVKHYHVHTNAENKLYLAENYCFDSIPKLIHYHQHNSAGMITRLRHPVSTKANKVPDSVSLGNGIWELKREEITLLKELGSGQFGVVQLGKWKGQYDVAVKMIKEGSMSEDEFFQEAQTMMKLSHPKLVKFYGVCSKEYPIYIVTEYISNGCLLNYLRSHGKGLEPSQLLEMCYDVCEGMAFLESHQFIHRDLAARNCLVDRDLCVKVSDFGMTRYVLDDQYVSSVGTKFPVKWSAPEVFHYFKYSSKSDVWAFGILMWEVFSLGKQPYDLYDNSQVVLKVSQGHRLYRPHLASDTIYQIMYSCWHELPEKRPTFQQLLSSIEPLREKDKH |  |  |  |  |  |  |  |  |  |  |  |  | 
 |  |  | RGS4: Regulator of G-protein signaling 4, in vitro translated from plasmid pcDNA3-RGS4 (protein, UniProt P49798 1-205, looked up) Regulator of G-protein …: MCKGLAGLPASCLRSAKDMKHRLGFLLQKSDSCEHNSSHNKKDKVVICQRVSQEEVKKWAESLENLISHECGLAAFKAFLKSEYSEENIDFWISCEEYKKIKSPSKLSPKAKKIYNEFISVQATKEVNLDSCTREETSRNMLEPTITCFDEAQKKIFNLMEKDSYRRFLKSRFYLDLVNPSSCGAEKQKGAKSSADCASLVPQCA | 29294 | 27303 | 3–4 fold | 5–15 fold | 23441 | 23137 | 3–5 fold | 30–100 fold | 85993 | 15–30 fold | 87339 | 71463 | 187328
 |  |  | RGS4-C2V: RGS4C2V mutant, in vitro translated from pcDNA3-RGS4-C2V (protein, UniProt P49798 1-205, looked up, variant C2V) Regulator of G-protein …: MVKGLAGLPASCLRSAKDMKHRLGFLLQKSDSCEHNSSHNKKDKVVICQRVSQEEVKKWAESLENLISHECGLAAFKAFLKSEYSEENIDFWISCEEYKKIKSPSKLSPKAKKIYNEFISVQATKEVNLDSCTREETSRNMLEPTITCFDEAQKKIFNLMEKDSYRRFLKSRFYLDLVNPSSCGAEKQKGAKSSADCASLVPQCA | 7744 | 7614 |  |  | 5567 | 5362 |  |  |  |  | 30201 | 26712 | 14689
